Experimental data taken from paper doi:10.1101/2019.12.26.888669.

Target: Escherichia coli thiol peroxidase, oxidized (disulfide) state (Escherichia coli) (UniProt P0A862)
Assay: SEC-MALS

stoichiometry N: 3
Substance: Escherichia coli thiol peroxidase, oxidized (disulfide) state (from UniProt P0A862 1-168) (enzyme)
